According to patent publication US20220017622A1 (Pfizer, published 2022):

T1: human B7-H4 on cells (human, UniProt Q7Z7D3 25-282)
T1 construct: whole, on cells; Tumour cell lines with endogenous B7-H4 or HEK293 transfected with human B7-H4
T1 sequence (looked up): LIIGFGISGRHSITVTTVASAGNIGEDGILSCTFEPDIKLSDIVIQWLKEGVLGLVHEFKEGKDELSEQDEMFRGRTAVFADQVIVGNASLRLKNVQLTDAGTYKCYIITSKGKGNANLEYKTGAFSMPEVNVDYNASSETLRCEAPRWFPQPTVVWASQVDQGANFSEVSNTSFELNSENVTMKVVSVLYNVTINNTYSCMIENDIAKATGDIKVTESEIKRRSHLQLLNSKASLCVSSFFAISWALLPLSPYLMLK


Experiments:
[1] = biological target: T2, human CD3 on primary human T cells (human, UniProt P07766 23-207; P04234 22-171); assay: flow cytometry on primary human T cells, 37 C
T2 construct: whole, on cells; On cells the whole CD3/TCR complex is present
T2 sequence (P07766 23-207, chain 1 of 2): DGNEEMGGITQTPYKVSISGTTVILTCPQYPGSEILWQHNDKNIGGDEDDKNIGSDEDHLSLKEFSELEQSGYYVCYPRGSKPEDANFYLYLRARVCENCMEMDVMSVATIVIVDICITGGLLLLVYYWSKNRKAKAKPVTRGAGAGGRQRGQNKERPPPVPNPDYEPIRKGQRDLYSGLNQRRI
T2 sequence (P04234 22-171, chain 2 of 2): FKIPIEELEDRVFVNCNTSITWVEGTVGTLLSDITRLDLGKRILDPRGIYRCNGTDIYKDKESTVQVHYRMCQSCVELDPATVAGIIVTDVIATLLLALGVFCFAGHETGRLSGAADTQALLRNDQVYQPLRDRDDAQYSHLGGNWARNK

human B7-H4 on cells [2] = biological target: T1, human B7-H4 on cells; assay: flow cytometry on MX-1 cells, 37 C
human B7-H4 on cells [3] = biological target: T1, human B7-H4 on cells; assay: cell-based or functional assay

| Binder | EC50 [1] | EC50 (human B7-H4 on cells [2]) | T cell mediated tumor cell killing EC50, HCC1954-Luc (human B7-H4 on cells [3]) | T cell mediated tumor cell killing, OVCAR3-Luc (human B7-H4 on cells [3]) | T cell mediated tumor cell killing, T47D (human B7-H4 on cells [3]) |
| --- | --- | --- | --- | --- | --- |
| B7-H4xCD3 bispecific antibody 1134 (bispecific antibody, IgG2, Chains 1-2: B7-H4 arm; chains 3-4: CD3 arm; IgG2) heavy 1: EVQLVESGGGLVQPGGSLRLSCAVSGGSFSGYYWNWIRQPPGKGLEWIGEIDHQGSTKYNPSLKSRVTISVDTAKNSFYLQMNSLRAEDTAVYYCARGLYNWNVDHWGQGTLVTVSSASTKGPSVFPLAPCSRSTSESTAALGCLVKDYFPEPVTVSWNSGALTSGVHTFPAVLQSSGLYSLSSVVTVPSSNFGTQTYTCNVDHKPSNTKVDKTVERKCEVECPECPAPPVAGPSVFLFPPKPKDTLMISRTPEVTCVVVAVSHEDPEVQFNWYVDGVEVHNAKTKPREEQFNSTFRVVSVLTVVHQDWLNGKEYKCKVSNKGLPSSIEKTISKTKGQPREPQVYTLPPSREEMTKNQVSLTCEVKGFYPSDIAVEWESNGQPENNYKTTPPMLDSDGSFFLYSKLTVDKSRWQQGNVFSCSVMHEALHNHYTQKSLSLSPG light 1: DIQMTQSPSSLSASVGDRVTITCRASQGIRNDLGWYQQKPGKAPKRLIYAASSLQSGVPSRFSGSGSGTDFTLTISSLQPEDFATYYCLQHNAYPRTFGGGTKVEIKRTVAAPSVFIFPPSDEQLKSGTASVVCLLNNFYPREAKVQWKVDNALQSGNSQESVTEQDSKDSTYSLSSTLTLSKADYEKHKVYACEVTHQGLSSPVTKSFNRGEC heavy 2: EVQLVESGGGLVQPGGSLRLSCAASGFTFSDYYMTWVRQAPGKGLEWVAFIRNQARGYTSDHNPSVKGRFTISRDNAKNSLYLQMNSLRAEDTAVYYCARDRPSYYVLDYWGQGTTVTVSSASTKGPSVFPLAPCSRSTSESTAALGCLVKDYFPEPVTVSWNSGALTSGVHTFPAVLQSSGLYSLSSVVTVPSSNFGTQTYTCNVDHKPSNTKVDKTVERKCRVRCPRCPAPPVAGPSVFLFPPKPKDTLMISRTPEVTCVVVAVSHEDPEVQFNWYVDGVEVHNAKTKPREEQFNSTFRVVSVLTVVHQDWLNGKEYKCKVSNKGLPSSIEKTISKTKGQPREPQVYTLPPSREEMTKNQVSLTCLVKGFYPSDIAVEWESNGQPENNYKTTPPMLDSDGSFFLYSRLTVDKSRWQQGNVFSCSVMHEALHNHYTQKSLSLSPGK light 2: DIQMTQSPSSLSASVGDRVTITCTSSQSLFNVRSQKNYLAWYQQKPGKAPKLLIYWASTRESGVPSRFSGSGSGTDFTLTISSLQPEDFATYYCKQSYDLFTFGGGTKVEIKRTVAAPSVFIFPPSDEQLKSGTASVVCLLNNFYPREAKVQWKVDNALQSGNSQESVTEQDSKDSTYSLSSTLTLSKADYEKHKVYACEVTHQGLSSPVTKSFNRGEC | 6.9 nM | 17.6 nM | 1560 nM | 540 | 7330 |
| B7-H4xCD3 bispecific antibody 1136 (bispecific antibody, IgG2, Chains 1-2: B7-H4 arm; chains 3-4: CD3 arm; IgG2) heavy 1: EVQLVESGGGLVQPGGSLRLSCAASGGSFSGYYWNWIRQPPGKGLEWIGEINHSGSATYNPSLKSRVTISVDTAKNSFYLQMNSLRAEDTAVYYCARGLYNWNVDHWGQGTLVTVSSASTKGPSVFPLAPCSRSTSESTAALGCLVKDYFPEPVTVSWNSGALTSGVHTFPAVLQSSGLYSLSSVVTVPSSNFGTQTYTCNVDHKPSNTKVDKTVERKCEVECPECPAPPVAGPSVFLFPPKPKDTLMISRTPEVTCVVVAVSHEDPEVQFNWYVDGVEVHNAKTKPREEQFNSTFRVVSVLTVVHQDWLNGKEYKCKVSNKGLPSSIEKTISKTKGQPREPQVYTLPPSREEMTKNQVSLTCEVKGFYPSDIAVEWESNGQPENNYKTTPPMLDSDGSFFLYSKLTVDKSRWQQGNVFSCSVMHEALHNHYTQKSLSLSPG light 1: DIQMTQSPSSLSASVGDRVTITCRASQGIRNDLGWYQQKPGKAPKRLIYAASSLQSGVPSRFSGSGSGTDFTLTISSLQPEDFATYYCLQHNAYPRTFGGGTKVEIKRTVAAPSVFIFPPSDEQLKSGTASVVCLLNNFYPREAKVQWKVDNALQSGNSQESVTEQDSKDSTYSLSSTLTLSKADYEKHKVYACEVTHQGLSSPVTKSFNRGEC heavy 2: EVQLVESGGGLVQPGGSLRLSCAASGFTFSDYYMTWVRQAPGKGLEWVAFIRNQARGYTSDHNPSVKGRFTISRDNAKNSLYLQMNSLRAEDTAVYYCARDRPSYYVLDYWGQGTTVTVSSASTKGPSVFPLAPCSRSTSESTAALGCLVKDYFPEPVTVSWNSGALTSGVHTFPAVLQSSGLYSLSSVVTVPSSNFGTQTYTCNVDHKPSNTKVDKTVERKCRVRCPRCPAPPVAGPSVFLFPPKPKDTLMISRTPEVTCVVVAVSHEDPEVQFNWYVDGVEVHNAKTKPREEQFNSTFRVVSVLTVVHQDWLNGKEYKCKVSNKGLPSSIEKTISKTKGQPREPQVYTLPPSREEMTKNQVSLTCLVKGFYPSDIAVEWESNGQPENNYKTTPPMLDSDGSFFLYSRLTVDKSRWQQGNVFSCSVMHEALHNHYTQKSLSLSPGK light 2: DIQMTQSPSSLSASVGDRVTITCTSSQSLFNVRSQKNYLAWYQQKPGKAPKLLIYWASTRESGVPSRFSGSGSGTDFTLTISSLQPEDFATYYCKQSYDLFTFGGGTKVEIKRTVAAPSVFIFPPSDEQLKSGTASVVCLLNNFYPREAKVQWKVDNALQSGNSQESVTEQDSKDSTYSLSSTLTLSKADYEKHKVYACEVTHQGLSSPVTKSFNRGEC | 5.7 nM | 3.55 nM | 500 nM | – | 3820 |
